Biological target: the molecule itself
Assay: […], pH 6.6

B1: Nup100f-Trp-7xHis (WT) (domain or fragment)
chain: GVFGQNNNQMQINGNNNNSLFGKANTFSNSASGGLFGQNNQQQGSGLFGQNSQTSGSSGLFGQNNQKQPNTFTQSNTGIGLFGQNNNQQQQSTGLFGAKPA
binding result: binds

Reference: article PMC3609069 (Prion, 2012)
